± gives the uncertainty stated by the source.

The data set can be described thus: amyloid nucleation score (Sup35N fusion, yeast selection) (log enrichment); library NNK1; higher = more nucleation; inactive = no reads after selection. The gist of the method:
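The nucleation score is the log enrichment of output over input reads, calculated with DiMSum and centred on the mode score of non-aggregating sequences. Sequences with under 100 input reads were excluded. Reads came from Illumina sequencing of plasmid inserts from psi-negative yeast expressing Sup35N fused to peptides of 20 random codons, induced 24 hours with 100 μM copper sulfate and grown 7 days at 30°C without adenine and uracil.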

In turn, PQVKTFGVVFVGGMCE came in with an amyloid nucleation score of 0.216 ± 0.41.

For DYTILYVVWILCGIKMSVVI, the amyloid nucleation score turned out to be 0.699 ± 0.66.

In turn, ESARCVRVTALSLWHRDQRS registered an amyloid nucleation score of 1.02 ± 0.8.

On to LCITQKYRFSLHNLHQPTDW, for which the amyloid nucleation score came to 1.93 ± 0.45.

The substance LGSGQGVNLSALPRFEYACR yielded an amyloid nucleation score of 0.527 ± 0.44.

Turning to HPRMCWVPVISIIPLLSVMA, the amyloid nucleation score was determined as 0.185 ± 0.41.

Take SFYLIPPSCGYISHFGISTG: the amyloid nucleation score entry was “inactive”.

SVVFLQRFLDR had an amyloid nucleation score of -0.564 ± 1.2.

As for GLKMFKMCLCNMALDIF, the amyloid nucleation score came out at 7.428 ± 0.073.

For the substance YVLRPFGLLKWSNSVGPHER, the amyloid nucleation score is -0.106 ± 1.2.

Turning to HVGRIPGEVYSLKFTGLGRY, the amyloid nucleation score was -0.839 ± 0.95.

In turn, DRMKTQGFCQTFNFWLGYYI displayed an amyloid nucleation score of 6.97 ± 0.075.

NLCYHWVRNIQNGQRFLCQL: the amyloid nucleation score result is “inactive”.

Substance CPASVMAKRYCQLKMGWWGP displayed an amyloid nucleation score of 0.202 ± 0.37.

SWNVVFKVPLGLRVLYGYLC: the amyloid nucleation score is -0.197 ± 0.28.

Consider LYKLWQSKFTVYWLEGLTSY, for which the amyloid nucleation score entry was “inactive”.

The substance MKLWMEMRWGRG registered an amyloid nucleation score of 5.41 ± 0.064.

DSMKN showed an amyloid nucleation score of 1.39 ± 0.13.

TLNVFDH returned an amyloid nucleation score of -0.421 ± 0.4.

Turning to DTLPRFRSRNSIVRNLSKNG, the amyloid nucleation score result is “inactive”.

Turning to NMHLTYETDRFARYVNSKFN, the amyloid nucleation score was determined as 0.744 ± 0.46.

MYCGS: the amyloid nucleation score is -0.279 ± 0.27.

The substance YGPGWTRWLENLSLYSMYEP came in with an amyloid nucleation score of -0.102 ± 1.5.

CIRVWCLILSRSWGFTPANC: the amyloid nucleation score was 1.18 ± 0.9.

Take GVSMFHRFSSHNWMCCWFVG: the amyloid nucleation score was 7.654 ± 0.064.

Substance RGNANIVEDSLFVVIGGRKV returned an amyloid nucleation score of 4.25 ± 0.074.

The substance PGFYGPLIGFMWRCSARERC displayed an amyloid nucleation score of 0.673 ± 0.37.

NFSFLGFLSRYGCLFQVSS: the amyloid nucleation score amounted to 0.582 ± 0.6.

With ILSDVDVCGYLRFMFWSMSD, the amyloid nucleation score was 1.58 ± 0.49.

IGENCRWRMSSRCGFNGNDT had an amyloid nucleation score of -0.37 ± 0.43.

Take DRTLDDPGVHHASKAE: the amyloid nucleation score result is “inactive”.

Substance WHTCYHSWSASIVLAPVSTT displayed an amyloid nucleation score of -0.009 ± 0.39.

Take TVLSSFLLKLRLTIVSCFLR: the amyloid nucleation score was -0.082 ± 0.65.

For the substance MVRWLNTSRKFT, the amyloid nucleation score came out at 1.06 ± 0.73.

For the substance ICITYL, the amyloid nucleation score stood at 2.56 ± 0.12.

MGGWNGNGIFCAYIYM returned an amyloid nucleation score of 0.344 ± 0.15.

In the case of NHYCRFHFTLESFLAGHVAN, the amyloid nucleation score was determined as 1.38 ± 0.23.

For YIIWFPFSKLVLMRYHRSWG, the amyloid nucleation score is -0.005 ± 0.22.

In turn, TSVDVFS gave an amyloid nucleation score of 0.656 ± 0.62.

SSVILSDCSCFMVHQCWYLC displayed an amyloid nucleation score of -2.13 ± 2.7.

Substance SNIWSSKKINTCLGM registered an amyloid nucleation score of 1.7 ± 0.16.

VVLLQLQCHEPFYSPKPQQA gave an amyloid nucleation score of -0.048 ± 0.51.

As to LVSQTYNMVARLRSSLARVN, the amyloid nucleation score is 0.243 ± 0.78.

Substance TLNIVHLYME had an amyloid nucleation score of 4.5 ± 0.065.

Turning to YVSVVCLFVPDKFRNVTDL, the amyloid nucleation score was found to be 6.87 ± 0.073.

Substance FTFEFVNHMASVYRSLMYER gave an amyloid nucleation score of -0.356 ± 1.1.

LQSTFFFYGGCKRVWSMMYH had an amyloid nucleation score of 4.45 ± 0.12.

LCFGGRSWSCFVKVKHLFAC showed an amyloid nucleation score of 1.68 ± 0.51.

KDIYKRFFWYYSKKVCGYGA showed an amyloid nucleation score of -0.172 ± 0.25.

Substance KTWNVCALARGWECEAINVW had an amyloid nucleation score of -0.264 ± 0.3.

Consider RTCDIRSLHPTTEGSETCGR, for which the amyloid nucleation score stood at 0.306 ± 0.56.

Regarding GFSVLCRSRPQGSTGVQIRV, the amyloid nucleation score is -0.788 ± 0.86.

For the substance TSPCYWNCI, the amyloid nucleation score result is “inactive”.

The substance LGSWRFMLAVI gave an amyloid nucleation score of 0.375 ± 0.48.

On to AYFMVHLLIF, for which the amyloid nucleation score turned out to be 1.34 ± 0.13.

As to LRCFYEYGFHKRTKVDSIDT, the amyloid nucleation score entry was “inactive”.

FLVPEVEKIFNIRVLEVRLM: the amyloid nucleation score was -0.834 ± 0.6.

In turn, YVCPRSWVVRVRHQKTFQSY came in with an amyloid nucleation score of -0.374 ± 0.81.

Consider RVVPGGRLRYVNMVF, for which the amyloid nucleation score is 1.26 ± 0.67.

Take LRWMESLRLNARSFKDTLLC: the amyloid nucleation score is -0.33 ± 1.7.

For the substance IQTCCHIQVELV, the amyloid nucleation score is 3.79 ± 0.088.

The substance EYGNGSIKPVGRHWLEGYLH gave an amyloid nucleation score of -0.701 ± 1.

With ATLLFRFV, the amyloid nucleation score turned out to be 0.831 ± 0.64.

SGYLRKRYTRRDC: the amyloid nucleation score entry is “inactive”.

The substance QPSGLGAECYM showed an amyloid nucleation score of 0.423 ± 1.4.

For the substance YSLVICNQNSFPNMVDIVLG, the amyloid nucleation score was 2.53 ± 0.074.

Consider IESMVYITPCIEGIRWNWEK, for which the amyloid nucleation score was 0.122 ± 0.36.

Substance PNAVNIIYDCAQLLFMRTMR displayed an amyloid nucleation score of -0.188 ± 0.65.

In turn, RYVCTESESVDLSQMAVIMS registered an amyloid nucleation score of 1.13 ± 0.4.

Take CTEKMIFTDLHRLRVVYKYT: the amyloid nucleation score is -0.59 ± 1.6.

As to VRNETSCTAIVFRSE, the amyloid nucleation score was 0.14 ± 0.22.

For TFLEIKVRD, the amyloid nucleation score was -0.496 ± 0.19.

The substance SLLCYRRGSWGEYIMFNGRL yielded an amyloid nucleation score of -0.366 ± 0.84.

For VCGFWVWLYVGVYSSIPNSM, the amyloid nucleation score was -0.015 ± 0.31.

As for QLSLGHNFLCYVMSMRVREV, the amyloid nucleation score entry is “inactive”.

In turn, IKWWKLCGVVRIGNNCLRYL had an amyloid nucleation score of 0.64 ± 0.72.

In the case of VMLAGSDWLNGFRAESFCGI, the amyloid nucleation score was -1.35 ± 2.1.

As to SVLSSLVSEISGVVCLVLGH, the amyloid nucleation score is -0.214 ± 0.57.

As for AMYFTWFVHFGAYRVRSIEK, the amyloid nucleation score was determined as 1.48 ± 0.48.

Regarding IRSLITMVGTGLGPLAR, the amyloid nucleation score was 0.876 ± 0.4.

Consider TVQWAEN, for which the amyloid nucleation score came out at 0.292 ± 0.63.

Regarding FKRRLGCLKPRNY, the amyloid nucleation score was -0.333 ± 0.52.

Turning to VSKLLCLRMHMLKLW, the amyloid nucleation score is -0.48 ± 0.48.

In the case of PREDRGLSWISGYYYYLVAG, the amyloid nucleation score was -0.341 ± 0.47.

Substance LIINGD yielded an amyloid nucleation score of 0.609 ± 1.2.

In the case of VAISQCLNNSNSRNIIVVKW, the amyloid nucleation score was 1.69 ± 0.34.

In the case of AGLRVYKIKSFRLEDSVNAG, the amyloid nucleation score stood at 1.49 ± 0.71.

The substance DAIHVWCICRKSLVFILRNS yielded an amyloid nucleation score of 0.086 ± 1.

For the substance WVSMKVVGVKHSGLDWRIL, the amyloid nucleation score was found to be 0.012 ± 0.52.

In the case of RACYTCVPVSGSRMSVRNLW, the amyloid nucleation score came to 3.19 ± 0.13.

The substance SWSPRHELPLGKLRWIWDRG returned an amyloid nucleation score of 1.03 ± 0.75.

AIFKSITDPVLWSGLF: the amyloid nucleation score is 0.562 ± 0.97.

Regarding NYAARPHSRSLLGAYDCSWS, the amyloid nucleation score worked out at 0.731 ± 0.47.

The substance KGKTNGVV displayed an amyloid nucleation score of -0.44 ± 0.48.

Take NRRCGGASSIRTGNRIWDDW: the amyloid nucleation score came to 2.22 ± 0.23.

The substance VGMYGSVSFMS had an amyloid nucleation score of -1.02 ± 0.89.

CPVMA displayed an amyloid nucleation score of -0.094 ± 0.27.

As for ILNGFTRYLR, the amyloid nucleation score was -0.12 ± 0.36.

Turning to RDIILGVLDRCSHCKNRALI, the amyloid nucleation score was 0.223 ± 0.62.

In the case of LELLMVKILSSLYDIMIFCC, the amyloid nucleation score entry was “inactive”.

On to TLLWFNEFILSGPNFRIGVV, for which the amyloid nucleation score was found to be 0.857 ± 0.58.

DNYVMWVLEGLSYVLGNNRI came in with an amyloid nucleation score of -0.087 ± 1.

In turn, SVSWYAMLRLSEIRDRCKSF came in with an amyloid nucleation score of 0.278 ± 0.32.

Take CDWGN: the amyloid nucleation score came to 1.14 ± 0.93.

SSCYDRVLYAPDRRR yielded an amyloid nucleation score of 1.23 ± 0.45.

With TAIIPPHFLASDSFRWSCAC, the amyloid nucleation score amounted to 0.008 ± 0.34.

In turn, YNLYRH showed an amyloid nucleation score of 0.406 ± 0.51.

Turning to NFPKHFSSALRF, the amyloid nucleation score is -0.081 ± 0.35.

The substance DLAHYAW displayed an amyloid nucleation score of 0.286 ± 0.45.

Substance SNLWFL returned an amyloid nucleation score of -0.213 ± 0.28.

The substance PVCFAFQFRATPNMQVHQPS returned an amyloid nucleation score of -0.108 ± 0.75.

Turning to GRRGKWVSSPWGGELKTCSK, the amyloid nucleation score worked out at 4.24 ± 0.084.

RLLASGFLSTRFR yielded an amyloid nucleation score of 0.143 ± 0.86.

Substance GWRNGKCFDGASPEWVLGHA registered an amyloid nucleation score of -0.39 ± 1.2.

Substance ARRRF had an amyloid nucleation score of -0.345 ± 1.7.

In turn, CSCGLSYGLYFE gave an amyloid nucleation score of 0.786 ± 0.92.

Take GGDSQCVLTGFWYCSTWGKG: the amyloid nucleation score is 6.438 ± 0.056.

As to YCGSTWASVWGPIICPRYRA, the amyloid nucleation score stood at 0.208 ± 0.33.

For LCLFGSWLKKLKYNRFLFVG, the amyloid nucleation score was -1.18 ± 1.7.

With VRCIVTERLTLAMDW, the amyloid nucleation score was 0.199 ± 0.47.

ILHWEKRDSTVKILSLSIHW displayed an amyloid nucleation score of 0.385 ± 0.46.

SSQRGGNPGIMFNWEIVLRG showed an amyloid nucleation score of 2.59 ± 0.14.

As for CGFEVFVRIV, the amyloid nucleation score stood at 0.431 ± 0.7.

TKSTYSSTVTKRTSASCVTL registered an amyloid nucleation score of 0.215 ± 1.1.

In turn, ANDFYVMYAEWKDCRNRVLF showed an amyloid nucleation score of 0.655 ± 0.66.

Take TVLTTTHFARSVFTLPGKSP: the amyloid nucleation score came out at 2.89 ± 0.17.

The substance LFLHPMYMMKAASASGITVV showed an amyloid nucleation score of -0.1 ± 0.57.

FTCKWRVGFWTPVSDPV had an amyloid nucleation score of -1.27 ± 0.7.

The substance MMDVV yielded an amyloid nucleation score of -0.756 ± 0.58.

In turn, FSFLHLVGRWGLIVSNCSDV gave an amyloid nucleation score of -0.355 ± 0.64.

In turn, IYYGQGICLVFAFNLLCNVL had an amyloid nucleation score of 6.261 ± 0.048.

YLRRSGMLAFSSSHHR returned an amyloid nucleation score of 1.15 ± 0.4.

With ISVVLWYDRALARCPSPDAP, the amyloid nucleation score amounted to 0.764 ± 0.49.

In turn, VKTPSVRIKWDVISLSLPCA had an amyloid nucleation score of 0.156 ± 0.53.

FVSGVFGYRMYDPRRVWLSL gave an amyloid nucleation score of -0.178 ± 0.7.

The substance MMGNNQRSPYDMDREASITF gave an amyloid nucleation score of 0.64 ± 0.43.

As for IKTNHKDNLWNNFNLYDKAH, the amyloid nucleation score was 0.233 ± 0.31.

TFPGEWHWERTIVIVPNFFH had an amyloid nucleation score of 2.03 ± 0.15.

DGCDGCLTYAKCGYLGFY had an amyloid nucleation score of 0.424 ± 0.67.

The record behind these values is the supplement of paper PMC12042874.
